Data reported in patent publication US10562935B2, “Stapled peptides and uses thereof” (London Health Sciences Centre Research Inc., priority 2015, dated 2020).
Where a SMILES comes first, the peptide text is derived from it. Bridges are numbered along the chain shown (N, C = ends). The star is where a group is joined. Biotin = O=C1N[C@H]2[C@H](CS[C@H]2CCCCC(=O)*)N1; AEEA = NCCOCCOCC(=O)O

Test: circular dichroism
Details: Milli-Q water; pH ns; ns °C; 0.5 mM
With `CC(C)C[C@H](NC(=O)[C@H](CCCCN)NC(=O)[C@H](CO)NC(=O)[C@@H](N)C(C)C)C(=O)N[C@@H](CCCNC(=N)N)C(=O)N[C@H]1CCC(=O)NCCCC[C@@H](C(=O)N[C@@H](CCCNC(=N)N)C(=O)N[C@@H](CCCCN)C(=O)N[C@@H](CCC(N)=O)C(=O)N[C@@H](CC(N)=O)C(N)=O)NC(=O)[C@H](C(C)C)NC(=O)[C@H](CC(C)C)NC(=O)[C@H](CCC(N)=O)NC1=O` (H-VSKLREQLVKRKQN-NH2; lactam 6-10) the helicity was -4400 MRE222.

Same assay, conditions: water (methods paragraph says 0.1 M phosphate; tables say water); pH ns; 20 °C; 0.5 mM
`CC[C@H](C)[C@H](NC(=O)[C@H](CCCCN)NC(=O)[C@H](CCC(N)=O)NC(=O)[C@H](CCCCN)NC(=O)[C@H](CC(C)C)NC(=O)[C@H](CC(N)=O)NC(C)=O)C(=O)N[C@H]1CCC(=O)NCCCC[C@@H](C(=O)N[C@@H](CC(C)C)C(=O)N[C@@H](CCCCN)C(=O)N[C@@H](CC(=O)O)C(=O)N[C@@H](CCC(=O)O)C(N)=O)NC(=O)[C@H](C(C)C)NC(=O)[C@H](C(C)C)NC(=O)[C@H](Cc2c[nH]cn2)NC1=O` (Ac-NLKQKIEHVVKLKDE-NH2; lactam 7-11) showed a helicity of -3850 MRE222. `CC[C@H](C)[C@@H]1NC(=O)[C@H](CCCCN)NC(=O)[C@@H](NC(=O)[C@H](CCCCN)NC(=O)[C@H](CC(C)C)NC(=O)[C@H](CC(N)=O)NC(C)=O)CCC(=O)NCCCC[C@@H](C(=O)N[C@H](C(=O)N[C@H](C(=O)N[C@@H](CCCCN)C(=O)N[C@@H](CC(C)C)C(=O)N[C@@H](CCCCN)C(=O)N[C@@H](CC(=O)O)C(=O)N[C@@H](CCC(=O)O)C(N)=O)C(C)C)C(C)C)NC(=O)[C@H](CCCCN)NC1=O` (Ac-NLKEKIKKVVKLKDE-NH2; lactam 4-8) showed a helicity of -2460 MRE222. For `CC(=O)N[C@H](C(=O)N[C@@H](CO)C(=O)N[C@@H](CCCCN)C(=O)N[C@@H](CC(C)C)C(=O)N[C@@H](CCCNC(=N)N)C(=O)N[C@H]1CCCCNC(=O)CC[C@@H](C(=O)N[C@@H](CCCNC(=N)N)C(=O)N[C@@H](CCCCN)C(=O)N[C@@H](CCC(N)=O)C(=O)N[C@@H](CC(N)=O)C(N)=O)NC(=O)[C@H](C(C)C)NC(=O)[C@H](CC(C)C)NC(=O)[C@H](CCC(N)=O)NC1=O)C(C)C` (Ac-VSKLRKQLVERKQN-NH2; lactam 6-10), the helicity was -1980 MRE222. `CC[C@H](C)[C@H](NC(=O)[C@H](CCCCN)NC(=O)[C@H](CCC(N)=O)NC(=O)[C@H](CCCCN)NC(=O)[C@H](CC(C)C)NC(=O)[C@H](CC(N)=O)NC(C)=O)C(=O)N[C@@H](CCCCN)C(=O)N[C@H]1CCC(=O)NCCCC[C@@H](C(=O)N[C@@H](CCCCN)C(=O)N[C@@H](CC(=O)O)C(=O)N[C@@H](CCC(=O)O)C(N)=O)NC(=O)[C@H](CCCCN)NC(=O)[C@H](C(C)C)NC(=O)[C@H](C(C)C)NC1=O` (Ac-NLKQKIKEVVKKKDE-NH2; lactam 8-12) gave a helicity of -1800 MRE222. `CC(=O)N[C@H](C(=O)N[C@@H](CO)C(=O)N[C@@H](CCCCN)C(=O)N[C@H]1CCC(=O)NCCCC[C@@H](C(=O)N[C@H](C(=O)N[C@@H](CCCCN)C(=O)N[C@@H](CCCNC(=N)N)C(=O)N[C@@H](CCCCN)C(=O)N[C@@H](CCC(N)=O)C(=O)N[C@@H](CC(N)=O)C(N)=O)C(C)C)NC(=O)[C@H](CCC(N)=O)NC(=O)[C@H](CO)NC(=O)[C@H](CCCNC(=N)N)NC1=O)C(C)C` (Ac-VSKERSQKVKRKQN-NH2; lactam 4-8) showed a helicity of -3350 MRE222. With `CC(=O)N[C@H](C(=O)N[C@@H](CO)C(=O)N[C@@H](CCCCN)C(=O)N[C@@H](CC(C)C)C(=O)N[C@@H](CCCNC(=N)N)C(=O)N[C@H]1CCC(=O)NCCCC[C@@H](C(=O)N[C@@H](CCCNC(=N)N)C(=O)N[C@@H](CCCCN)C(=O)N[C@@H](CCC(N)=O)C(=O)N[C@@H](CC(N)=O)C(N)=O)NC(=O)[C@H](C(C)C)NC(=O)[C@H](CC(C)C)NC(=O)[C@H](CCC(N)=O)NC1=O)C(C)C` (Ac-VSKLREQLVKRKQN-NH2; lactam 6-10) the helicity was -4850 MRE222. Molecule `CC(=O)N[C@H](C(=O)N[C@@H](CO)C(=O)N[C@@H](CCCCN)C(=O)N[C@@H](CC(C)C)C(=O)N[C@H]1CCC(=O)NCCCC[C@@H](C(=O)N[C@@H](CCCCN)C(=O)N[C@@H](CCCNC(=N)N)C(=O)N[C@@H](CCCCN)C(=O)N[C@@H](CCC(N)=O)C(=O)N[C@@H](CC(N)=O)C(N)=O)NC(=O)[C@H](CC(C)C)NC(=O)[C@H](CCC(N)=O)NC(=O)[C@H](CO)NC1=O)C(C)C` (Ac-VSKLESQLKKRKQN-NH2; lactam 5-9) has a helicity of -6450 MRE222.

Test: not given
Details: biotinylated peptide, HA coated ELISA plate
In the case of “{Biotin-AEEA}-VSKLRSQLVKRKQN-NH2 [Compound 284]”, the “peptide concentration required for equivalent interaction with HA” value is reported as 10 µg/mL. For “Biotin-AEEA-(cyclo-6,10)-VSKLR[EQLVK]RKQN-NH2 [Compound 287]”, the “peptide concentration required for equivalent interaction with HA” value was 0.08 µg/mL.
